{"source": "paper PMC3956856", "about": "“Interaction of Kinase-Interaction-Motif Protein Tyrosine Phosphatases with the Mitogen-Activated Protein Kinase ERK2” (PLoS ONE, 2014)", "molecules": {"B1": {"name": "extracellular signal-regulated kinase 2 (ERK2), unphosphorylated (enzyme, UniProt P63086 1-358, looked up)", "chain": "MAAAAAAGPEMVRGQVFDVGPRYTNLSYIGEGAYGMVCSAYDNLNKVRVAIKKISPFEHQTYCQRTLREIKILLRFRHENIIGINDIIRAPTIEQMKDVYIVQDLMETDLYKLLKTQHLSNDHICYFLYQILRGLKYIHSANVLHRDLKPSNLLLNTTCDLKICDFGLARVADPDHDHTGFLTEYVATRWYRAPEIMLNSKGYTKSIDIWSVGCILAEMLSNRPIFPGKHYLDQLNHILGILGSPSQEDLNCIINLKARNYLLSLPHKNKVPWNRLFPNADSKALDLLDKMLTFNPHKRIEVEQALAHPYLEQYYDPSDEPIAEAPFKFDMELDDLPKEKLKELIFEETARFQPGYRS", "notes": "ERK2 (extracellular signal-regulated kinase 2), unphosphorylated; also called MAPK; source: final SEC (Superdex 75 26/60)"}}, "key": {"[1]": {"target": "T1, STEP KIMKIS peptide (STEP residues 213-256) (mouse, UniProt P54830 213-256)", "T1 construct": "STEP (PTPN5), residues 213-256 (KIM and KIS); mouse is stated for the STEP 213-539 construct; source: synthetic peptide (Biosynthesis, Inc.), HPLC purified, >98% purity", "T1 peptide (looked up)": "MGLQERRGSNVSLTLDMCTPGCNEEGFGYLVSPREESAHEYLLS", "assay": "ITC; ERK2 titrated into STEPKIM, PTPSL KIMKIS or STEP KIMKIS in the cell; 25 °C; 10 mM Tris pH 7.5, 150 mM NaCl, 0.1 mM EDTA, 0.5 mM TCEP; one-site model; triplicate", "settings": "both partners purified"}, "[2]": {"target": "T2, PTPSL KIMKIS (PTPSL residues 332-373) (human, UniProt Q15256 332-373)", "T2 construct": "PTPSL/PTPBR7 (PTPRR), residues 332-373 (KIM and KIS); human is stated for the PTPSL 332-655 construct; Recombinant, not synthetic; source: final SEC", "T2 chain (looked up)": "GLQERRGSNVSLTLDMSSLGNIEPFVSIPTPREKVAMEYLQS", "assay": "ITC; ERK2 titrated into STEPKIM, PTPSL KIMKIS or STEP KIMKIS in the cell; 25 °C; 10 mM Tris pH 7.5, 150 mM NaCl, 0.1 mM EDTA, 0.5 mM TCEP; one-site model; triplicate", "settings": "both partners purified"}, "[3]": {"target": "T3, STEPKIM peptide (STEP residues 213-229) (mouse, UniProt P54830 213-229)", "T3 construct": "STEP (PTPN5, striatal enriched protein tyrosine phosphatase), residues 213-229 (KIM); mouse is stated for the STEP 213-539 construct; source: synthetic peptide (Biosynthesis, Inc.), HPLC purified, >98% purity", "T3 peptide (looked up)": "MGLQERRGSNVSLTLDM", "assay": "ITC; ERK2 titrated into STEPKIM, PTPSL KIMKIS or STEP KIMKIS in the cell; 25 °C; 10 mM Tris pH 7.5, 150 mM NaCl, 0.1 mM EDTA, 0.5 mM TCEP; one-site model; triplicate", "settings": "both partners purified"}, "ERK2 [4]": {"target": "T4, ERK2 (Rattus norvegicus, UniProt P63086)", "T4 construct": "gene Mapk1; made in house", "assay": "SAXS of resting-state complexes with ERK2", "settings": "ERK2:PTPSL complex; 50 mM HEPES pH 6.8, 150 mM NaCl, 5 mM dithiothreitol"}, "ERK2 [5]": {"target": "T4, ERK2", "settings": "structural model from cross-linking, MS and molecular modeling; ref [24]; cited from earlier work", "description": "In this model, PTPSLCAT binds ERK2 in an orientation in which the catalytic site is positioned near the ERK2 phosphorylation loop. This is different from the p38 ... || Figure 3 Regulatory protein-MAPK interaction strengths. The binding strengths of each KIM-PTP (KIM peptides and KIM-containing MKBDs (in orange font), light blue; KIMKIS peptides, light purple; proteins, light pink) to p38α and ERK2 represented from weakest to tightest (largest Kd to smallest Kd) binding affinity; ‘^†’ indicates values previously published, [15], [17], [18]. KIM-PTP:MAPK complexes determined to be extended using SAXS written in normal text; KIM-PTP:MAPK complexes determined to be compact written in italics; *, compact nature of the ERK2-PTPSL complex determined by ..."}, "p38α": {"target": "p38α", "settings": "values previously published, ref [14], [15], [17], [18]; cited from earlier work", "description": "We used ITC measurements to determine the binding affinity of STEP and PTPSL for unphosphorylated ERK2 ( Table 1; Figure S1). […] This complex has a ∼3-times lower Kd (tighter binding) than the next tightest complex, ERK2:PTPSL, and a nearly 70-fold greater affinity than the weakest complex, p38α:HePTP [15]. Like STEP, PTPSL binds ERK2 more tightly (∼3.5-fold) than p38α. We also tested peptides that include the kinase specificity s ... || We also generated a chimeric protein in which we fused the PTPSLKIMKIS to STEPCAT (PSchimera; Figure 1A ). […] Thus, they only adopt a single conformation when they bind their respective MAPKs. This is different from the MAPK-binding domains (MKBD) of MAPK phosphatases (MKP; dual specificity phosphatases; DUSPs), [26]. In MKPs, the KIM sequence is part of a stable, folded domain and thus adopts a single, ordered conformation in both the unbound and MAPK-bound states, [28]. […] Our ... || (+ 1 further places)"}, "[6]": {"target": "B1", "assay": "ITC; PTPSLKIM, PTPSL, STEP or PSChimera titrated into ERK2 in the cell; 25 °C; 10 mM Tris pH 7.5, 150 mM NaCl, 0.1 mM EDTA, 0.5 mM TCEP; one-site model; triplicate", "settings": "both partners purified"}, "ERK2 [7]": {"target": "T4, ERK2", "assay": "Isothermal titration calorimetry with ERK2", "type": "binding", "protocol": "The PTPSLKIM peptide (residues 331–348), STEPKIM (residues 213–229) and STEPKIMKIS (residues 213–256) were synthesized, HPLC purified and verified by mass spectrometry (MS) (>98% purity; Biosynthesis, Inc.). Expression and purification of ERK2 and PTPSLKIMKIS (residues 332–373) was carried out as previously described, [15]. PTPSL (residues 332–655, human), STEP (residues 213–539, mouse) and PSChimera (PTPSL residues 332–373 with STEP residues 257–539; gene synthesized by DNA 2.0) were expressed and purified using the protocol previously described in detail for STEPCAT (residues 244–539). The DUSP16 MAPK binding domain (residues 5–138, human) was expressed and purified as previously described. All purified proteins were stored at −80 °C until use at which point they were thawed and exchanged into the appropriate buffer using size exclusion chromatography (SEC; Superdex 75 26/60; GE Healthcare). The final protein buffer was dependent on the experiment performed. For ITC experiments, the final SEC purification was performed in ITC buffer (10 mM Tris pH 7.5, 150 mM NaCl, 0.1 mM EDTA, 0.5 mM TCEP); for SAXS experiments, the final SEC purification was performed in SAXS buffer (50 mM HEPES pH 6.8, 150 mM NaCl, 5 mM dithiothreitol). PTPSLKIM, STEPKIM and STEPKIMKIS peptides were solubilized in ITC buffer prior to ITC measurements.\nITC experiments were performed at 25 °C using a VP-ITC microcalorimeter (Microcal Inc.). Titrant (10 μL per injection) was injected into the sample cell over a period of 20 seconds with a 250 second interval between titrations to allow for complete equilibration and baseline recovery. 28 injections were delivered during each experiment and the solution in the sample cell was stirred at 307 rpm to ensure rapid mixing. To determine the thermodynamic parameters (ΔH, ΔS, ΔG) and binding constants (K) of the ERK2:PTPSLKIM, ERK2:PTPSL, ERK2:STEP and ERK2:PSChimera interactions, PTPSLKIM, PTPSL, STEP and PSChimera were titrated into ERK2. To determine the same parameters for the ERK2:STEPKIM, ERK2:PTPSLKIMKIS and ERK2:STEPKIMKIS interaction, ERK2 was titrated into the peptides. Titrants were chosen based on the amount of purified protein/peptide available for the experiment. For all titrations the concentrations were slightly varied to ensure independence of the Kd from the protein/peptide concentrations. Data were analyzed with a one-site binding model assuming a binding stoichiometry of 1∶1 using Origin 7.0 software. A nonlinear least-squares algorithm and the titrant and sample cell concentrations were used to fit the heat flow per injection to an equilibrium binding equation, providing values of the stoichiometry (n), change in enthalpy (ΔH) and binding constant (K). All data were repeated in triplicate."}}, "note": "“Also recorded” adds a separate entry of the source.", "data": [{"molecule": "B1", "values": [{"measurement": "dH", "setting": "[1]", "value": -29.2, "unit": "kcal/mol"}, {"measurement": "dH", "setting": "[2]", "value": -21.6, "unit": "kcal/mol"}, {"measurement": "dH", "setting": "[3]", "value": -27.9, "unit": "kcal/mol"}]}, {"molecule": "PTPSL (residues 332-655, human) (domain or fragment, UniProt Q15256 332-655, looked up, PTPSL/PTPBR7 (PTPRR, PTP STEP-like), human, residues 332-655 (KIM, KIS and catalytic domain); The results loosely call this construct 'full-length PTPSL'; the construct is residues 332-655; also called PTPBR7; PTPRR; source: final SEC) GLQERRGSNVSLTLDMSSLGNIEPFVSIPTPREKVAMEYLQSASRILTRSQLRDVVASSHLLQSEFMEIPMNFVDPKEIDIPRHGTKNRYKTILPNPLSRVCLRPKNVTDSLSTYINANYIRGYSGKEKAFIATQGPMINTVDDFWQMVWQEDSPVIVMITKLKEKNEKCVLYWPEKRGIYGKVEVLVISVNECDNYTIRNLVLKQGSHTQHVKHYWYTSWPDHKTPDSAQPLLQLMLDVEEDRLASQGRGPVVVHCSAGIGRTGCFIATSIGCQQLKEEGVVDALSIVCQLRMDRGGMVQTSEQYEFVHHALCLYESRLSAET", "values": [{"measurement": "aggregation of the ERK2:PTPSL complex in SAXS samples", "setting": "ERK2 [4]", "value": "persistently exhibited the typical hallmarks of aggregation"}, {"measurement": "shape of the ERK2:PTPSL resting-state complex (in words)", "setting": "ERK2 [5]", "value": "compact, with ERK2 and PTPSL associating in a side-by-side manner"}, {"measurement": "Kd", "setting": "p38α", "value": "382 ± 65", "unit": "nM"}, {"measurement": "Kd", "setting": "[6]", "value": 108, "unit": "nM"}, {"measurement": "dH", "setting": "[6]", "value": -22.3, "unit": "kcal/mol"}, {"measurement": "relative binding to ERK2 (in words)", "setting": "ERK2 [7]; ERK2, ITC", "value": "more strongly than does HePTP"}, {"measurement": "tighter binding to ERK2 than the PTPSLKIM peptide", "setting": "ERK2 [7]; ERK2, ITC, versus PTPSLKIM", "value": "~4", "unit": "times"}, {"measurement": "tighter binding to ERK2 than to p38α (fold difference in affinity)", "setting": "ERK2 [7]; ITC Kd, ERK2 versus p38α", "value": "~3.5", "unit": "fold"}, {"measurement": "affinity for ERK2 compared with p38α (in words)", "setting": "ERK2 [7]; ITC, ERK2 versus p38α", "value": "higher binding affinity for ERK2 than for p38α; also recorded: bind more strongly to ERK2"}, {"measurement": "TΔS", "setting": "ERK2 [7]; unphosphorylated ERK2, ITC, 25 °C, 10 mM Tris pH 7.5, 150 mM NaCl, 0.1 mM EDTA, 0.5 mM TCEP, average and standard deviation, triplicate", "value": "-12.8 ± 2.1", "unit": "kcal/mol"}]}]}
